Laboratory results reported in IntAct's records for PubMed 27065194.

B1: Protein BTG4 (Mus musculus), O70552 (parent)
chain: MRDEIATAVFFVTRLVKKHEKLSTQQIETFALKLMTILFEKYRGHWHPDCPSKGQAFRCIRINNNENKDPVLERACAESNVNFFHLGLPKEMTIWVDPYEVCCRYGEKKHPFTIASFKGRWENWELAQHVSCAVNRATGDCSSGTSSDEESCSREAQIIPKVNNPKSVYQVENFKQSLQPWFCLPRRKHLADGRGFLPGAACHPVPKSSKWCRPASRRVDRYHWVNAQLFSGQTAPGEPGEEALSSLKQK

Variants of: B1
Settings: with cnot7_mouse Cnot7, Q60809
Sequence of cnot7_mouse Cnot7, Q60809 (Q60809 whole entry): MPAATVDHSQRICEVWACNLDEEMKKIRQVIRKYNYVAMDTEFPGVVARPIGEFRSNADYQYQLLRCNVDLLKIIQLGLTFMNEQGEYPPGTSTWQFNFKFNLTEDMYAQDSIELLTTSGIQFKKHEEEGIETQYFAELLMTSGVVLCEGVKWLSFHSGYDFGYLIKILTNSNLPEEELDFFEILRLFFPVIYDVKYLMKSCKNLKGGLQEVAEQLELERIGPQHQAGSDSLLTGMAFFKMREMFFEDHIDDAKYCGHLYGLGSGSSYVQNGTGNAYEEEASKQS

Variant | effect of a mutation on the interaction
MRDEIATAVFFVTRLVKKHEKLSTQQIETFALKLMTILFEKYRGHWHPDCPSKGQAFRCIRINNNENKAPVLERACAESNVNFFHLGLPKEMTIWVDPYEVCCRYGEKKHPFTIASFKGRWENWELAQHVSCAVNRATGDCSSGTSSDEESCSREAQIIPKVNNPKSVYQVENFKQSLQPWFCLPRRKHLADGRGFLPGAACHPVPKSSKWCRPASRRVDRYHWVNAQLFSGQTAPGEPGEEALSSLKQK [D69A] | disrupting interaction strength
MRDEIATAVFFVTRLVKKHEKLSTQQIETFALKLMTILFEKYRGHWHPDCPSKGQAFRCIRINNNENKDPVLERACAESNVNFFHLGLPKEMTIWVDPYEVCCRYGAKKHPFTIASFKGRWENWELAQHVSCAVNRATGDCSSGTSSDEESCSREAQIIPKVNNPKSVYQVENFKQSLQPWFCLPRRKHLADGRGFLPGAACHPVPKSSKWCRPASRRVDRYHWVNAQLFSGQTAPGEPGEEALSSLKQK [E107A] | disrupting interaction strength
MRDEIATAVFFVTRLVKKHEKLSTQQIETFALKLMTILFEKYRGHWHPDCPSKGQAFACIRINNNENKDPVLERACAESNVNFFHLGLPKEMTIWVDPYEVCCRYGEKKHPFTIASFKGRWENWELAQHVSCAVNRATGDCSSGTSSDEESCSREAQIIPKVNNPKSVYQVENFKQSLQPWFCLPRRKHLADGRGFLPGAACHPVPKSSKWCRPASRRVDRYHWVNAQLFSGQTAPGEPGEEALSSLKQK [R58A] | disrupting interaction strength
MRDEIATAVFFVTRLVKKHEKLSTQQIETFALKLMTILFEKYRGHWHPDCPSKGQAFRCIRINNNENKDPVLERACAESNVNFFHLGLPKEMTIAVDPYEVCCRYGEKKHPFTIASFKGRWENWELAQHVSCAVNRATGDCSSGTSSDEESCSREAQIIPKVNNPKSVYQVENFKQSLQPWFCLPRRKHLADGRGFLPGAACHPVPKSSKWCRPASRRVDRYHWVNAQLFSGQTAPGEPGEEALSSLKQK [W95A] | disrupting interaction strength
MRDEIATAVFFVTRLVKKHEKLSTQQIETFALKLMTILFEKYRGHWHPDCPSKGQAFRAIRINNNENKDPVLERACAESNVNFFHLGLPKEMTIWVDPYEVCCRYGEKKHPFTIASFKGRWENWELAQHVSCAVNRATGDCSSGTSSDEESCSREAQIIPKVNNPKSVYQVENFKQSLQPWFCLPRRKHLADGRGFLPGAACHPVPKSSKWCRPASRRVDRYHWVNAQLFSGQTAPGEPGEEALSSLKQK [C59A] | decreasing interaction strength
MRDEIATAVFFVTRLVKKHEKLSTQQIETFALKLMTILFEKYRGHAHPDCPSKGQAFRCIRINNNENKDPVLERACAESNVNFFHLGLPKEMTIWVDPYEVCCRYGEKKHPFTIASFKGRWENWELAQHVSCAVNRATGDCSSGTSSDEESCSREAQIIPKVNNPKSVYQVENFKQSLQPWFCLPRRKHLADGRGFLPGAACHPVPKSSKWCRPASRRVDRYHWVNAQLFSGQTAPGEPGEEALSSLKQK [W46A] | disrupting interaction strength
MRDEIATAVFFVTRLVKKHEKLSTQQIETFALKLMTILFEKYRGAWHPDCPSKGQAFRCIRINNNENKDPVLERACAESNVNFFHLGLPKEMTIWVDPYEVCCRYGEKKHPFTIASFKGRWENWELAQHVSCAVNRATGDCSSGTSSDEESCSREAQIIPKVNNPKSVYQVENFKQSLQPWFCLPRRKHLADGRGFLPGAACHPVPKSSKWCRPASRRVDRYHWVNAQLFSGQTAPGEPGEEALSSLKQK [H45A] | disrupting interaction strength

Variants of: B1
Settings: with cnot8_mouse Cnot8, Q9D8X5
Sequence of cnot8_mouse Cnot8, Q9D8X5 (Q9D8X5 whole entry): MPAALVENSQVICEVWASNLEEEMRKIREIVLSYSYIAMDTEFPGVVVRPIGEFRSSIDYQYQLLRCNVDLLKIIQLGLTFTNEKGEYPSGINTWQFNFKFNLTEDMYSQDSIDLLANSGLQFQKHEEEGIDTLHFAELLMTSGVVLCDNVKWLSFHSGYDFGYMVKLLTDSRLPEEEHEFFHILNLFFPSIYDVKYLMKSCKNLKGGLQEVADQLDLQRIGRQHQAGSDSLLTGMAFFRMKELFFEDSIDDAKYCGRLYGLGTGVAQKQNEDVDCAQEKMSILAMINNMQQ

Variant | effect of a mutation on the interaction
MRDEIATAVFFVTRLVKKHEKLSTQQIETFALKLMTILFEKYRGHWHPDCPSKGQAFRCIRINNNENKDPVLERACAESNVNFFHLGLPKEMTIAVDPYEVCCRYGEKKHPFTIASFKGRWENWELAQHVSCAVNRATGDCSSGTSSDEESCSREAQIIPKVNNPKSVYQVENFKQSLQPWFCLPRRKHLADGRGFLPGAACHPVPKSSKWCRPASRRVDRYHWVNAQLFSGQTAPGEPGEEALSSLKQK [W95A] | disrupting interaction strength
